Data as given in the supplement of paper PMC5998384.

Columns and labels:
[1] = tested on: HeLa Kyoto; experiment: solubility in G1/S (NP-40 vs SDS abundance) (log2 ratio); higher = more soluble; conditions: cell cycle stage: G1/S
[2] = tested on: HeLa Kyoto; experiment: melting temperature (median over replicates), in situ; higher = more thermally stable
[3] = tested on: HeLa Kyoto; experiment: solubility change mitosis vs G1/S (difference of NP-40 vs SDS log2 ratios) (log2 ratio difference); higher = more soluble in mitosis
[4] = tested on: HeLa Kyoto; experiment: thermal stability score vs G1/S (z-score of summed log2 fold changes over temperatures); higher = more thermally stable than in G1/S
[5] = cell cycle stage: early G1 (4.5 h after nocodazole release)
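Throughout, for melting temperature (median over replicates), in situ: HeLa Kyoto cells synchronized by double thymidine or nocodazole block, proteins quantified by TMT10plex mass spectrometry, three independent biological replicates.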
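Throughout, for solubility change mitosis vs G1/S (difference of NP-40 vs SDS log2 ratios): synchronized HeLa Kyoto cells (double thymidine block for G1/S, nocodazole release for mitosis), protein amounts in NP-40 versus SDS lysates quantified by mass spectrometry, three biological replicates.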
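Throughout, for solubility in G1/S (NP-40 vs SDS abundance): HeLa Kyoto cells arrested at G1/S by double thymidine block, proteins quantified by TMT10plex mass spectrometry in mild NP-40 versus SDS extracts, three biological replicates.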
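Throughout, for thermal stability score vs G1/S (z-score of summed log2 fold changes over temperatures): synchronized HeLa Kyoto cells, proteins quantified by TMT10plex mass spectrometry, three biological replicates, mitosis taken 0.5 h after nocodazole release, G1/S directly after double thymidine block.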

Sequence | solubility in G1/S (log2) [1] | melting temperature ([2]; cell cycle stage: G1/S) | melting temperature ([2]; cell cycle stage: mitosis) | solubility change mitosis (log2) [3] | thermal stability score [4, 5] | thermal stability score ([4]; cell cycle stage: mitosis)
MADNEKLDNQRLKNFKNKGRDLETMRRQRNEVVVELRKNKRDEHLLKRRNVPHEDICEDSDIDGDYRVQNTSLEAIVQNASSDNQGIQLSAVQAARKLLSSDRNPPIDDLIKSGILPILVHCLERDDNPSLQFEAAWALTNIASGTSEQTQAVVQSNAVPLFLRLLHSPHQNVCEQAVWALGNIIGDGPQCRDYVISLGVVKPLLSFISPSIPITFLRNVTWVMVNLCRHKDPPPPMETIQEILPALCVLIHHTDVNILVDTVWALSYLTDAGNEQIQMVIDSGIVPHLVPLLSHQEVKVQTAALRAVGNIVTGTDEQTQVVLNCDALSHFPALLTHPKEKINKEAVWFLSNITAGNQQQVQAVIDANLVPMIIHLLDKGDFGTQKEAAWAISNLTISGRKDQVAYLIQQNVIPPFCNLLTVKDAQVVQVVLDGLSNILKMAEDEAETIGNLIEECGGLEKIEQLQNHENEDIYKLAYEIIDQFFSSDDIDEDPSLVPEAIQGGTFGFNSSANVPTEGFQF [KPNA4] | 0.0932 | 52.3 °C | 51.9 °C | -0.0591 | -0.466 | -0.221
MADTQYILPNDIGVSSLDCREAFRLLSPTERLYAYHLSRAAWYGGLAVLLQTSPEAPYIYALLSRLFRAQDPDQLRQHALAEGLTEEEYQAFLVYAAGVYSNMGNYKSFGDTKFVPNLPKEKLERVILGSEAAQQHPEEVRGLWQTCGELMFSLEPRLRHLGLGKEGITTYFSGNCTMEDAKLAQDFLDSQNLSAYNTRLFKEVDGEGKPYYEVRLASVLGSEPSLDSEVTSKLKSYEFRGSPFQVTRGDYAPILQKVVEQLEKAKAYAANSHQGQMLAQYIESFTQGSIEAHKRGSRFWIQDKGPIVESYIGFIESYRDPFGSRGEFEGFVAVVNKAMSAKFERLVASAEQLLKELPWPPTFEKDKFLTPDFTSLDVLTFAGSGIPAGINIPNYDDLRQTEGFKNVSLGNVLAVAYATQREKLTFLEEDDKDLYILWKGPSFDVQVGLHELLGHGSGKLFVQDEKGAFNFDQETVINPETGEQIQSWYRSGETWDSKFSTIASSYEECRAESVGLYLCLHPQVLEIFGFEGADAEDVIYVNWLNMVRAGLLALEFYTPEAFNWRQAHMQARFVILRVLLEAGEGLVTITPTTGSDGRPDARVRLDRSKIRSVGKPALERFLRRLQVLKSTGDVAGGRALYEGYATVTDAPPECFLTLRDTVLLRKESRKLIVQPNTRLEGSDVQLLEYEASAAGLIRSFSERFPEDGPELEEILTQLATADARFWKGPSEAPSGQA [DPP3] | 0.153 | 53.8 °C | 53 °C | -0.14 | -0.363 | -1.69
MADYSTVPPPSSGSAGGGGGGGGGGGVNDAFKDALQRARQIAAKIGGDAGTSLNSNDYGYGGQKRPLEDGDQPDAKKVAPQNDSFGTQLPPMHQQQSRSVMTEEYKVPDGMVGFIIGRGGEQISRIQQESGCKIQIAPDSGGLPERSCMLTGTPESVQSAKRLLDQIVEKGRPAPGFHHGDGPGNAVQEIMIPASKAGLVIGKGGETIKQLQERAGVKMVMIQDGPQNTGADKPLRITGDPYKVQQAKEMVLELIRDQGGFREVRNEYGSRIGGNEGIDVPIPRFAVGIVIGRNGEMIKKIQNDAGVRIQFKPDDGTTPERIAQITGPPDRCQHAAEIITDLLRSVQAGNPGGPGPGGRGRGRGQGNWNMGPPGGLQEFNFIVPTGKTGLIIGKGGETIKSISQQSGARIELQRNPPPNADPNMKLFTIRGTPQQIDYARQLIEEKIGGPVNPLGPPVPHGPHGVPGPHGPPGPPGPGTPMGPYNPAPYNPGPPGPAPHGPPAPYAPQGWGNAYPHWQQQAPPDPAKAGTDPNSAAWAAYYAHYYQQQAQPPPAAPAGAPTTTQTNGQGDQQNPAPAGQVDYTKAWEEYYKKMGQAVPAPTGAPPGGQPDYSAAWAEYYRQQAAYYAQTSPQGMPQHPPAPQGQ [FUBP1] | 0.527 | 57 °C | 56.4 °C | 0.0996 | -0.104 | -0.787
MAEAEEQETGSLEESTDESEEEESEEEPKLKYERLSNGVTEILQKDAASCMTVHDKFLALGTHYGKVYLLDVQGNITQKFDVSPVKINQISLDESGEHMGVCSEDGKVQVFGLYSGEEFHETFDCPIKIIAVHPHFVRSSCKQFVTGGKKLLLFERSWMNRWKSAVLHEGEGNIRSVKWRGHLIAWANNMGVKIFDIISKQRITNVPRDDISLRPDMYPCSLCWKDNVTLIIGWGTSVKVCSVKERHASEMRDLPSRYVEIVSQFETEFYISGLAPLCDQLVVLSYVKEISEKTEREYCARPRLDIIQPLSETCEEISSDALTVRGFQENECRDYHLEYSEGESLFYIVSPRDVVVAKERDQDDHIDWLLEKKKYEEALMAAEISQKNIKRHKILDIGLAYINHLVERGDYDIAARKCQKILGKNAALWEYEVYKFKEIGQLKAISPYLPRGDPVLKPLIYEMILHEFLESDYEGFATLIREWPGDLYNNSVIVQAVRDHLKKDSQNKTLLKTLAELYTYDKNYGNALEIYLTLRHKDVFQLIHKHNLFSSIKDKIVLLMDFDSEKAVDMLLDNEDKISIKKVVEELEDRPELQHVYLHKLFKRDHHKGQRYHEKQISLYAEYDRPNLLPFLRDSTHCPLEKALEICQQRNFVEETVYLLSRMGNSRSALKMIMEELHDVDKAIEFAKEQDDGELWEDLILYSIDKPPFITGLLNNIGTHVDPILLIHRIKEGMEIPNLRDSLVKILQDYNLQILLREGCKKILVADSLSLLKKMHRTQMKGVLVDEENICESCLSPILPSDAAKPFSVVVFHCRHMFHKECLPMPSMNSAAQFCNICSAKNRGPGSAILEMKK [VPS41] | -0.0889 | 50.2 °C | 49.8 °C | -0.131 | 0.549 | 0.342
MAEAMDLGKDPNGPTHSSTLFVRDDGSSMSFYVRPSPAKRRLSTLILHGGGTVCRVQEPGAVLLAQPGEALAEASGDFISTQYILDCVERNERLELEAYRLGPASAADTGSEAKPGALAEGAAEPEPQRHAGRIAFTDADDVAILTYVKENARSPSSVTGNALWKAMEKSSLTQHSWQSLKDRYLKHLRGQEHKYLLGDAPVSPSSQKLKRKAEEDPEAADSGEPQNKRTPDLPEEEYVKEEIQENEEAVKKMLVEATREFEEVVVDESPPDFEIHITMCDDDPPTPEEDSETQPDEEEEEEEEKVSQPEVGAAIKIIRQLMEKFNLDLSTVTQAFLKNSGELEATSAFLASGQRADGYPIWSRQDDIDLQKDDEDTREALVKKFGAQNVARRIEFRKK [TERF2IP] | 0.503 | 49.8 °C | 52.4 °C | 0.0568 | 1.96 | 1.16
MAEAVLRVARRQLSQRGGSGAPILLRQMFEPVSCTFTYLLGDRESREAVLIDPVLETAPRDAQLIKELGLRLLYAVNTHCHADHITGSGLLRSLLPGCQSVISRLSGAQADLHIEDGDSIRFGRFALETRASPGHTPGCVTFVLNDHSMAFTGDALLIRGCGRTDFQQGCAKTLYHSVHEKIFTLPGDCLIYPAHDYHGFTVSTVEEERTLNPRLTLSCEEFVKIMGNLNLPKPQQIDFAVPANMRCGVQTPTA [ETHE1] | 0.214 | 56.6 °C | 56.5 °C | -0.0383 | -1 | -1.06
MAEDDPYLGRPEQMFHLDPSLTHTIFNPEVFQPQMALPTDGPYLQILEQPKQRGFRFRYVCEGPSHGGLPGASSEKNKKSYPQVKICNYVGPAKVIVQLVTNGKNIHLHAHSLVGKHCEDGICTVTAGPKDMVVGFANLGILHVTKKKVFETLEARMTEACIRGYNPGLLVHPDLAYLQAEGGGDRQLGDREKELIRQAALQQTKEMDLSVVRLMFTAFLPDSTGSFTRRLEPVVSDAIYDSKAPNASNLKIVRMDRTAGCVTGGEEIYLLCDKVQKDDIQIRFYEEEENGGVWEGFGDFSPTDVHRQFAIVFKTPKYKDINITKPASVFVQLRRKSDLETSEPKPFLYYPEIKDKEEVQRKRQKLMPNFSDSFGGGSGAGAGGGGMFGSGGGGGGTGSTGPGYSFPHYGFPTYGGITFHPGTTKSNAGMKHGTMDTESKKDPEGCDKSDDKNTVNLFGKVIETTEQDQEPSEATVGNGEVTLTYATGTKEESAGVQDNLFLEKAMQLAKRHANALFDYAVTGDVKMLLAVQRHLTAVQDENGDSVLHLAIIHLHSQLVRDLLEVTSGLISDDIINMRNDLYQTPLHLAVITKQEDVVEDLLRAGADLSLLDRLGNSVLHLAAKEGHDKVLSILLKHKKAALLLDHPNGDGLNAIHLAMMSNSLPCLLLLVAAGADVNAQEQKSGRTALHLAVEHDNISLAGCLLLEGDAHVDSTTYDGTTPLHIAAGRGSTRLAALLKAAGADPLVENFEPLYDLDDSWENAGEDEGVVPGTTPLDMATSWQVFDILNGKPYEPEFTSDDLLAQGDMKQLAEDVKLQLYKLLEIPDPDKNWATLAQKLGLGILNNAFRLSPAPSKTLMDNYEVSGGTVRELVEALRQMGYTEAIEVIQAASSPVKTTSQAHSLPLSPASTRQQIDELRDSDSVCDSGVETSFRKLSFTESLTSGASLLTLNKMPHDYGQEGPLEGKI [NFKB1] | 0.137 | 48 °C | 48.5 °C | -0.0714 | 0.372 | 0.928
MAEGEDVGWWRSWLQQSYQAVKEKSSEALEFMKRDLTEFTQVVQHDTACTIAATASVVKEKLATEGSSGATEKMKKGLSDFLGVISDTFAPSPDKTIDCDVITLMGTPSGTAEPYDGTKARLYSLQSDPATYCNEPDGPPELFDAWLSQFCLEEKKGEISELLVGSPSIRALYTKMVPAAVSHSEFWHRYFYKVHQLEQEQARRDALKQRAEQSISEEPGWEEEEEELMGISPISPKEAKVPVAKISTFPEGEPGPQSPCEENLVTSVEPPAEVTPSESSESISLVTQIANPATAPEARVLPKDLSQKLLEASLEEQGLAVDVGETGPSPPIHSKPLTPAGHTGGPEPRPPARVETLREEAPTDLRVFELNSDSGKSTPSNNGKKGSSTDISEDWEKDFDLDMTEEEVQMALSKVDASGELEDVEWEDWE [BSDC1] | 0.378 | 53.3 °C | 53.5 °C | -0.201 | -1.16 | -2.92
MAEGERQPPPDSSEEAPPATQNFIIPKKEIHTVPDMGKWKRSQAYADYIGFILTLNEGVKGKKLTFEYRVSEMWNEVHEEKEQAAKQSVSCDECIPLPRAGHCAPSEAIEKLVALLNTLDRWIDETPPVDQPSRFGNKAYRTWYAKLDEEAENLVATVVPTHLAAAVPEVAVYLKESVGNSTRIDYGTGHEAAFAAFLCCLCKIGVLRVDDQIAIVFKVFNRYLEVMRKLQKTYRMEPAGSQGVWGLDDFQFLPFIWGSSQLIDHPYLEPRHFVDEKAVNENHKDYMFLECILFITEMKTGPFAEHSNQLWNISAVPSWSKVNQGLIRMYKAECLEKFPVIQHFKFGSLLPIHPVTSG [PPP2R4] | 0.247 | 53.8 °C | 53.8 °C | -0.119 | 2.14 | 2.26
